Laboratory results reported in the nanobody polyreactivity screen of Harvey et al. (2022).

Assay: yeast display, Sf9 membrane polyspecificity reagent, FACS + sequencing; frameworks hold sequencing errors
Method in brief: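 Synthetic nanobody libraries on Saccharomyces cerevisiae BJ5465 were galactose-induced for 36–48 hours, stained 1 hour at 4 °C with 10% biotinylated, detergent-solubilized Sf9 membrane reagent and enriched on streptavidin microbeads. FACS then separated cells into low and high (top ~1%) gates by anti-HA (expression) and streptavidin (reagent binding) fluorescence. Genes were colony-PCR amplified, MiSeq 2 × 250 sequenced and CDR-length filtered. A clone's polyreactivity label is that of its gate of origin.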

Sequence | polyreactivity (PSR sort gate)
QVQLVESGGGLVQAGGSRRLSCAASGLIFVHYTMGWYRQATGKERELVAAITSSGGSTYYAYSVKGRFTISRDNAKNTVYLEMNSMKPEDTAVYYCATKSYSPTRTRFYYWGQGTQVTVSS | high polyreactivity
QVQLVESGGGLVQAGGSRRLSCAASGRIFTYYAMGWYRQAPGKERELVAAISSGGSTYYADSVKGRFTISRDNAKNTVYLQMNSLKPEDTAVYYCAAAGGYYGVNWRGDSWGQGTQVTVSS | high polyreactivity
QVQLVESGGGLVQAGGSRRLSCAASGRTFEGNAMGWYRQAPGKERELVAAITSGGRTNYADSVKGRFTISRDNAKNTVYLQMNSLKPEDTAVYYCAVDTRDRSTYFPGQAYDFWGQGTQVTVSS | low polyreactivity
QVQLVESGGGLVQAGGSRRLSCAASGRTFSKNAMGWYRQAPGKERELVAAISGSGGSTYYADSVKGRFTISRDNAKNSVYLQMNSLKPEDTAVYYCAADGTGFRYLRYDYWGQGTQVTVSS | high polyreactivity
QVQLVESGGGLVQAGGSRRLSCAASGRTFYLYAMGWYIQARGQERELVAANTTSGGSTYYADSVKGRFTISRDKAKNTVYLQMHSLKPEDTAVYYCNKDLSTTKFDDWGQGTQVTVSS | low polyreactivity
QVQLVESGGGLVQAGGSRRLSCAASGRTLGHNAMGWYRQAPGKERELVAAITSRGGTTYADSVKGRFTISRDNAKNTVYLQMNSLTPEDTAVYYCAARGYAYSRYYFWGQGTQVTVSS | high polyreactivity
QVQLVESGGGLVQAGGSRRLSCAASGSIFYLYAMGWSRQAPGKERELVATITWSGGSTYYADSVKGRFTISRDTAKNTVYLQMNSLKPEDTAVYYCAATALEWYPAVYNQYYYWGQGTQVTVSS | low polyreactivity
QVQLVESGGGLVQAGGSRRLSCAASGSILSKYTMGWYRQATGKERELVAVISSSGASTYYADSVKGRFTISRDNAKNTVYLQMNSLKPEDTAVYYCATYPWYSKYRYDHWGQGTQVTVSS | high polyreactivity
QVQLVESGGGLVQAGGSRRLSCAASGSTFYPYAMGWYRQAPGKERELVAAITWSGGRTYYADSVKGRFTISRDNAKNTVYLQMNSLKPEDTAVYYCAADRPDRWVDYWGQGTQVTVSS | low polyreactivity
QVQLVESGGGLVQAGGSRRLSCAPSGSIIGEYAMGWYRQAAGKERELVAAINVNGGRTYYADSVKGRFTISRDNAKYTVYLQMNRLKPEETAVYYCNAGYYLTLDYWGQGTQVTVSS | high polyreactivity
QVQLVESGGGLVQAGGSRRLTCAASGSIFFYNAMGWYRQATGKERELVAAISSATSTYYADSVKGRFTISRDNAMISVYVHMNSLTEEDTAVYYCAADFSDGYFWYDYWGQGTQVTVSS | high polyreactivity
QVQLVESGGGLVQAGGSRRVSCAASGITFPNYAMGWYRQAPGKERELVAAITGSGGSTYYADSVKGRFTISRDNAKNTVYVQMNSLKPEDTAVYYCNAVYYRYIRGFYYWGPGTQVTVSS | high polyreactivity
QVQLVESGGGLVQAGGSVRLSCAASGRIFRYYMGWYRQAPGKEREFVAAITTRGGRTYYADSVKGRFTISRDNAKNTVSLQMNSLKPEDTAVYYCAAGYNGAIIALRAYDYWGQGTQVTVSS | high polyreactivity
QVQLVESGGGLVQAGGSVRLSCAASGSIFNANTMGWYRQAPGKERELVAVITSGGTTNYADSVKGRFTISRDNAKNTVYLQMNSLKPEDTAVYYCAVRISGNWYDYWGQGTQVTVSS | low polyreactivity
QVQLVESGGGLVQAGGSVRLSCAASGSTSAYAMGWYRQAPGKEREFVAAIRFSAGSTYYADSVKGRFTISRDNAKNTVYLQMNSLKPEDTAVYYCAASYSVIFGYFPDYYWVVEYDYWGQGTQVTVSS | high polyreactivity
QVQLVESGGGLVQAGGTIRISSAPSGRTLGCNAMGRSRQAPGKEWELVSAISYSGGDTTYADSVKGRFTISRDKAKNTVYLQMNSLKPEDTAVYYCAARGDYYVYAYNRRFVYLGQGTQVTVSS | low polyreactivity
QVQLVESGGGLVQAGGTLPLTCAASGSTYYVYAMGCDRQAPGKEREFVAAITGSDGSTYYADSVMGRFTISRDNAKNTVYLQMNSLKPEDTAVYYCAADYYLQNYETGYGYWGQGTQVTVSS | low polyreactivity
QVQLVESGGGLVQAGGTLRLRCAASGFTFRYYVMRWYRQAPGKERELVAAITSGGSTNYADSVKGRFSISRDNAQNTVYLLMNSLKPEDTAVYYCAAGLSYRHNYWGQGTQVTVSS | low polyreactivity
QVQLVESGGGLVQAGGTLRLSCAASGFIFGINAMGWYRQAPGQERELVAAIATGDRTNYADSVTGRFTISRDNAKNTVYLQMNSLKPEHTAVYYCAAGVHWDRGDYWGQGTQVTVST | low polyreactivity
QVQLVESGGGLVQAGGTLRLSCAASGFIINRYAMGWYRQPPGKERELVAAISWSGGRTYYADSVKGRFTISRDNAKNTVSLQMNSLKPEDTAVYYCAADSYTSLDGRDYWGQGTQVTVSS | high polyreactivity
QVQLVESGGGLVQAGGTLRLSCAASGFIISRNAMGWYRQAPRKERELVAAITWPGGTTYYADSVKGRFTISRDNAKNTVYLQMISLKPEDTAVYYSAADEYGPHTFSPEYDSWGQGTQVTVSS | low polyreactivity
QVQLVESGGGLVQAGGTLRLSCAASGFTFSINAMGWSRQAPGKERELVAGISWSGGITYYADSVKGRFTISRDNAKNTVYLQMNSLKPEDTAVYYCNTDYGLTTPVVWDDYWGQGTQVTVSS | low polyreactivity

Sequence | polyreactivity (PSR sort gate)
QVQLVESGGGLVQAGGTLRLSCAASGGIFGGYAMGWYRQAPGTEGELVAVITSGGSTYYADSVKGRFTISRDNAKNTVYLQMNSLKPEDTAVYYCAADGHSYSYSTYDYWGQGTQVTVSS | low polyreactivity
QVQLVESGGGLVQAGGTLRLSCAASGIIFGVYAMGWYRQAPGKERELVAAIDGNGSSTYYADSVKGRFTISRDTAKNTVYLQMNSLKPEDTAVYYCPAGYWSYLYYWYDFDYWGQGTQVTVSS | low polyreactivity
QVQLVESGGGLVQAGGTLRLSCAASGITFDYNAMGWYRQAPGKERELVATISDTGSTNYADSVKGRFTISRDNAKNTVYLQMNSLKPEDTAVYYCAADGLGDYHPKWEYQEYDYWGQGTQVTVSS | low polyreactivity
QVQLVESGGGLVQAGGTLRLSCAASGITFTGNDMGWYRQAPGKERELVAAISNRGGSTYYADSVKGRFTISRDNAKNTVYLQMNSLKPEDTAVYYCRTSTPRRVSGNYWGQGTQVTVSS | high polyreactivity
QVQLVESGGGLVQAGGTLRLSCAASGLISYFYGMGWYRQAPGKERELVAGIDTGSSTNYADSVKGRFTISRDNAKNTVYLQMNSLKPEDTAVYYCAADSVSKYGSDYWGQGTQVTVSS | low polyreactivity
QVQLVESGGGLVQAGGTLRLSCAASGLTFGYNAMVWYRQAPRKERELVATISYSGGRTYYADSVKGRFTISRDTAKNTVYLQMNSLKPEDTAVYSCAARRASGPYGFGYWGQGTQVTVSS | high polyreactivity
QVQLVESGGGLVQAGGTLRLSCAASGLTFKSYDMGWYRHAPGKERELVAAITSGVSTHYADSVKGRFTISRDNAKNTVYLQMNSLKPEDTAVYYCAADYSWYDPYWIMDYWGQGTQVTVSS | low polyreactivity
QVQLVESGGGLVQAGGTLRLSCAASGNTFRYYAMGWYRQSPGKERELVARITGRAGSTYYADSVKGRFTISRDNAKKTVYLQMNSLKPEDTAVYYCAAEFYYGFDYWGQGTQVTVSS | high polyreactivity
QVQLVESGGGLVQAGGTLRLSCAASGRIFPAYVMGWYRQAPGKERELVATIDNGGGTYYADSVKGRFTISRDNAKNTVYLQMNSLKPEDTAVYYCARDRHVRWGLKMDYWGQGTQVTVSS | low polyreactivity
QVQLVESGGGLVQAGGTLRLSCAASGRIFPRNVLGWYRQAPGKEWELVAAISSRGTRTYYADSVKGRFTISRDNAKNTVYLQMNSLKPEDTPVYYCAADGPYEGYDDWGQGTQVTVSS | high polyreactivity
QVQLVESGGGLVQAGGTLRLSCAASGRTFSGYAMGWYRQAPGKERELVAAIDRGDGTNYADSVKGRFTISRDNAKNTVYLQMNSLKPEDTAVYYCAADYSYGSTSHTYTGFDYWGQGTQVTVSS | low polyreactivity
QVQLVESGGGLVQAGGTLRLSCAASGSIFGKNAMGWYRQARGKERELVAAITWSGGSTYYADSVKGRFTISRDNAKNTVSLQINSLKPEDTAVYYCNAVRVRVTSHRIRQLDYGYWGQGTQVTVSS | low polyreactivity
QVQLVESGGGLVQAGGTLRLSCAASGSIFRGNGMGWYRQAPGKERELVAAISRSGGRTYYADSVKGRFTFSRDNAKNTVYLQMNSLKPEDTAVYYCAAVPPYNYRFRVYYWGQGSQVTVSS | high polyreactivity
QVQLVESGGGLVQAGGTLRLSCAASGSIFRYYAMGWYRQAPGKERELVATITSTGGSTYYADSVKGRFTISRDNAKNTVYLQMNSLKPEDTAVYYCAARNKLYVTVRGYYLSGYWGQGTQVTVSS | high polyreactivity
QVQLVESGGGLVQAGGTLRLSCAASGSIFRYYTMGWYRQAPGKERELVAAITWDGDSTYYADSVKGRFTISLDNAKNTVYLQMNSLKPEDTAVYYCNADDYGPGFDYWGQGTQVTVSS | low polyreactivity
QVQLVESGGGLVQAGGTLRLSCAASGSILGGNAMGWYRQAPGKERELVAAITFSGGGTYYADSVKGRFTISRDNAKNTVYLQMNSLKPEDTAVYYCAADKDGYTYEFDYWGQGTQVTVSS | low polyreactivity
QVQLVESGGGLVQAGGTLRLSCAASGSILTPNAMGWSRQAPGKERELVAAISDNAGSTYYADSVKGRFTISRDNAKNTVYLQMNSLKPEDTAVYYCAAEYWEYNLVYLVYYYSMDYWGQGTQVTVSS | high polyreactivity
QVQLVESGGGLVQAGGTLRLSCAASGSIVQSYAMGWYRQAPGKERELVAAITERGGSTYYADSVKGRFTISRDNAKNTVYLQMNSLKPEDTAVYYCAAKAVGLGKSWRGDDYWGQGTQVTVSS | low polyreactivity
QVQLVESGGGLVQAGGTLRLSCAASGSTFAANAMGWYRQAPGKERELVAAITSSGGSTYYADSVKGRFTISRDNAKNTVYLQMNSLKPEDTAVYYCNTDIERYVRIYDSWGQGTQVTVSS | low polyreactivity
QVQLVESGGGLVQAGGTLRLSCAASGSTFGVYAMGWYRQAPGKERELVAAIDNSGDDTYYADSVKGRFTISRDNAKNTVYLQMNSLKPEDTAVYYCAADFWDGRSTLNFWGQGTQVTVSS | high polyreactivity
QVQLVESGGGLVQAGGTLRLSCAASGSTFVDYAMGWYRQAPGKERELVAGINGSGGSTYYADSVKGRFTISRDNAKNTVYLQMNSLKPEDTAVYYCAKDGSNRLALPAWDYNYWGQGTQVTVSS | low polyreactivity
